Test results reported in IntAct's records for PubMed 12446441.

B1: Ras-related protein Rab-27A (Homo sapiens), P51159-1 (parent)
chain: MSDGDYDYLIKFLALGDSGVGKTSVLYQYTDGKFNSKFITTVGIDFREKRVVYRASGPDGATGRGQRIHLQLWDTAGQERFRSLTTAFFRDAMGFLLLFDLTNEQSFLNVRNWISQLQMHAYCENPDIVLCGNKSDLEDQRVVKEEEAIALAEKYGIPYFETSAANGTNISQAIEMLLDLIMKRMERCVDKSWIPEGVVRSNGHASTDQLSEEKEKGACGC
partner: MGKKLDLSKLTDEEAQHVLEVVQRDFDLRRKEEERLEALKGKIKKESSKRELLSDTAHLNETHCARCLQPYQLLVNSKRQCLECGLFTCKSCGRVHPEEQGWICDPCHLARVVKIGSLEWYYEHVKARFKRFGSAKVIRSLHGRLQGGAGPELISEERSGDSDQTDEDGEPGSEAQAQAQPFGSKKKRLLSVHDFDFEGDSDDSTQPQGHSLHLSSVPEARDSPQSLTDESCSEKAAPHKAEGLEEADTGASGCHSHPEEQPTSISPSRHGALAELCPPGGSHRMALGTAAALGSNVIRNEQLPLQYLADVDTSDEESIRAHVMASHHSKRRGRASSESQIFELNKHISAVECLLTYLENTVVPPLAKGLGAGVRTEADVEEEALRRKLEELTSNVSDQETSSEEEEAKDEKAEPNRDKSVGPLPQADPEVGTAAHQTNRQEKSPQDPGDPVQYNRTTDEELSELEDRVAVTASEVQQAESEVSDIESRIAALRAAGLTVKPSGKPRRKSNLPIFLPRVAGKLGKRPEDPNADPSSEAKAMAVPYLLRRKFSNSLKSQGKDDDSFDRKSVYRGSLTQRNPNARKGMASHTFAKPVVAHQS

Variants of: B1
Details: with melph_human MLPH

| Variant | effect of a mutation on the interaction |
| --- | --- |
| T23N | disrupting interaction strength |

Variants of: B1
Details: with melph_human MLPH
Remark: another data set of the same source

| Variant | effect of a mutation on the interaction |
| --- | --- |
| W73G | disrupting interaction strength |
| W73S | disrupting interaction strength |
| W73L | disrupting interaction strength |
